T1: refolding Vibrio harveyi luciferase (urea-denatured and diluted into refolding buffer) (Vibrio harveyi, UniProt P07740 1-355; P07739 1-324)
T1 construct: alpha subunit of the heterodimeric flavin monooxygenase luciferase of Vibrio harveyi; beta subunit of the heterodimeric flavin monooxygenase luciferase of Vibrio harveyi; In the assays the heterodimer was urea-denatured; also called luciferase subunits; source: E. coli (pET21b), purified (Ni-His Trap, Superdex 75); denatured in 5 M urea and diluted into buffer A; not shown: His tag (on the …)
T1 sequence (looked up) 1: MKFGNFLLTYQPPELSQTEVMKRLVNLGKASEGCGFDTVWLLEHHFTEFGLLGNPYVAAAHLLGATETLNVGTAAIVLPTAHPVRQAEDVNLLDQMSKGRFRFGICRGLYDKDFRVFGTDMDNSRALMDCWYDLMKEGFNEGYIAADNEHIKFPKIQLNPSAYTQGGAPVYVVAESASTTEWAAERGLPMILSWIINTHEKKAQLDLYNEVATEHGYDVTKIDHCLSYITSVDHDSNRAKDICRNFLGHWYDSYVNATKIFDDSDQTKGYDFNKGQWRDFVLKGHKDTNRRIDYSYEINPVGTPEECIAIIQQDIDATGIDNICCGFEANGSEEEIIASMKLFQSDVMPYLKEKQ
T1 sequence (looked up) 2: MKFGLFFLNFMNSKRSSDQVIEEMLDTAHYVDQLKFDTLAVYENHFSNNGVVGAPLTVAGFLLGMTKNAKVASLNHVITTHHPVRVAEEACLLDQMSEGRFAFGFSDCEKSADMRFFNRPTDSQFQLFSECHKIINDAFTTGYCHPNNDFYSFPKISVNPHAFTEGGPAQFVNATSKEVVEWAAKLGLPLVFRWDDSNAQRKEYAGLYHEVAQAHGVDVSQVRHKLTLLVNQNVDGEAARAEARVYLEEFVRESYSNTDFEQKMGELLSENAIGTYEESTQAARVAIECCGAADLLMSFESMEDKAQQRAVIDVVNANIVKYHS

B1: refolding glyceraldehyde 3-phosphate dehydrogenase (rabbit GAPDH, GdnHCl-denatured and diluted into refolding buffer) (enzyme)
chain: not shown
notes: glyceraldehyde 3-phosphate dehydrogenase, rabbit (rabbit-muscle GAPDH, pdb 1J0X); Native GAPDH is a tetramer; The protein from tissue likely lacks the initiator methionine (surmise); also called rGAPDH; source: bought: Sigma-Aldrich (G2267), purified rabbit GAPDH; denatured in 3 M GdnHCl and diluted into buffer A
B2: wild-type trigger factor (natural protein)
chain: MQVSVETTQGLGRRVTITIAADSIETAVKSELVNVAKKVRIDGFRKGKVPMNIVAQRYGASVRQDVLGDLMSRNFIDAIIKEKINPAGAPTYVPGEYKLGEDFTYSVEFEVYPEVELQGLEAIEVEKPIVEVTDADVDGMLDTLRKQQATWKEKDGAVEAEDRVTIDFTGSVDGEEFEGGKASDFVLAMGQGRMIPGFEDGIKGHKAGEEFTIDVTFPEEYHAENLKGKAAKFAINLKKVEERELPELTAEFIKRFGVEDGSVEGLRAEVRKNMERELKSAIRNRVKSQAIEGLVKANDIDVPAALIDSEIDVLRRQAAQRFGGNEKQALELPRELFEEQAKRRVVVGLLLGEVIRTNELKADEERVKGLIEEMASAYEDPKEVIEFYSKNKELMDNMRNVALEEQAVEAVLAKAKVTEKETTFNELMNQQA
notes: trigger factor, a bacterial ATP-independent chaperone; results are mapped onto the crystal structure pdb 1w26; Monomer-dimer equilibrium; predominantly monomeric under the conditions used (low uM, 0.26 M GdnHCl); also called TF; source: E. coli BL21 (DE3), purified (Ni-His Trap, ULP1 cleavage, HiTrap Q, Superdex 75); not shown: His-Sumo, N-terminal, cleaved
B3: Fluorescein-5-maleimide-labelled trigger factor E326C (natural protein)
chain: B2 chain with E326C
modifications: fluorescein-5-maleimide on the cysteine of E326C
notes: Labelling efficiency typically above 92%; also called fluorescently labelling trigger factor; source: E. coli BL21 (DE3), purified (Ni-His Trap, ULP1 cleavage, HiTrap Q, Superdex 75), labelled with fluorescein-5-maleimide; not shown: His-Sumo, N-terminal, cleaved
B4: Alexa Fluor 488-labelled GAPDH (enzyme)
chain: not shown
modifications: CF Fluor 488 A maleimide (called Alexa Fluor 488) on cysteine; the paper says only Cys 149 is solvent-exposed in the native tetramer
notes: glyceraldehyde 3-phosphate dehydrogenase, rabbit; Labelling efficiency typically above 98%; also called fluorophore labelled GAPDH; source: bought: Sigma-Aldrich (G2267), labelled with CF Fluor 488A maleimide, denatured in GdnHCl

Data set [1] addresses B3. The data set is described as follows: fluorescence polarisation; anisotropy titration; 0.5 μM fluorescein-labelled trigger factor E326C titrated with GdnHCl-denatured GAPDH; buffer A, 4 °C; quadratic fit; apparent. To be noted: both partners purified.
Data set [2] concerns the molecule itself. The data set is described as follows: AUC; sedimentation velocity; 5 μM refolding GAPDH alone or with 15 μM trigger factor; buffer A (0.1 M potassium phosphate pH 7.5, 0.1 M KCl, 1 mM TCEP) with 0.26 M GdnHCl, 4 °C, 40,000 r.p.m.
The target in data set [3] is B2. The data set is described as follows: cross-linking; XL-MS; 6 μM denatured GAPDH diluted into buffer A with equimolar trigger factor (0.26 M GdnHCl), 2 h on ice, then 2 mM disuccinimidyl dibutyric urea 2 h on ice; SDS–PAGE and LC–MS. Conditions: both partners purified.
Data set [4] concerns the target B1. The data set is described as follows: AUC; sedimentation velocity; 5 μM refolding GAPDH alone or with 15 μM trigger factor; buffer A (0.1 M potassium phosphate pH 7.5, 0.1 M KCl, 1 mM TCEP) with 0.26 M GdnHCl, 4 °C, 40,000 r.p.m. Conditions: both partners purified.
For data set [5], the target named is T1, refolding Vibrio harveyi luciferase …. The data set is described as follows: AUC; sedimentation velocity; 2 μM refolding luciferase alone or with 16 μM trigger factor; buffer A with 0.1 M urea, 4 °C, 35,000 r.p.m. Conditions: both partners purified.
Data set [6] shares this target. The data set is described as follows: fluorescence polarisation; anisotropy titration; 0.5 μM fluorescein-labelled trigger factor E326C titrated with urea-denatured luciferase; buffer A, 25 °C; hyperbola fit; apparent. To be noted: both partners purified.
Data set [7] has as its target B2. The data set is described as follows: fluorescence polarisation; stopped-flow anisotropy; 0.13 μM labelled denatured GAPDH mixed with 0.13–3.24 μM trigger factor; 0.1 M potassium phosphate pH 7.6, 0.1 M KCl, 1 mM TCEP, 0.26 M GdnHCl, 4 °C; linear fit of kobs against trigger factor concentration. To be noted: both partners purified.

Positions count from the first letter of the chain named.

In the case of B1, the Kd in data set [1] came out at 0.32 µM. In addition, the binding result (in data set [2]; with wild-type trigger factor [3]) was “binds” throughout.

As to B2, the “stoichiometry N” value in data set [4] and in data set [5] was 1 each time.

Regarding B3, the Kd in data set [6] stood at 4.5 µM.

For the molecule B4, in the data set with wild-type trigger factor [7], the off-rate constant (koff) is 8.7 s⁻¹ and the kon came to 6.6e+06 M⁻¹ s⁻¹.

The values are drawn from publication PMC9287376 (Nature Communications, 2022).
